Where a chain is given by its changes, count along the chain named. Names and notes keep the numbering of the source. Values belong to the binder of their own block, whether it stands above or below them.
Key:
[1] = target: T1, cynomolgus GITR on activated cynomolgus T cells (cynomolgus, UniProt Q9Y5U5 26-241 (human entry)); assay: FACS on activated cynomolgus T cells, PE anti-human IgG. The EC50 table prints no unit, so nM is taken from the axis 'Concentration (nM)'. The 3C3 curve itself is flat, see non_binding.
T1 construct: also called cyno GITR
T1 chain: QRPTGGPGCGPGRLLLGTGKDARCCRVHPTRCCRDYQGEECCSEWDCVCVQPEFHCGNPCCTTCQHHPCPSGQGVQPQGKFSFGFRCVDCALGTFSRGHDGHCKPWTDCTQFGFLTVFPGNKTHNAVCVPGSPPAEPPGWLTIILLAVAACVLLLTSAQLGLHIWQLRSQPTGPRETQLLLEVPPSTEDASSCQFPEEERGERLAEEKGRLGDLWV
Description: (§1) Peripheral Blood Mononuclear Cells (PBMCs) isolated from human or cynomolgus monkey were activated with plate-coated anti-CD3 antibody (Clone: UCHT1 for human T cell activation; Clone: SP34 for cynomolgus T cell activation; both from BD Biosciences) and soluble anti-CD28 antibody (Clone:CD28.2 for both human and cynomolgus monkey, BD Biosciences) for 4 days (human)/or 5 days (cynomolgus monkey). The cells were tested for GITR mAb binding in a fluorescence-activated cell sorting (FACS)-based assay using a phycoerythrin (PE)-conjugated anti-human IgG antibody (Jackson ImmunoResearch). The samples were analyzed on a BD FACS Canto Flow Cytometer.

[2] = target: T2, human GITR, membrane bound (on activated human T cells and on 3A9-hGITR cells) (human, UniProt Q9Y5U5 26-241); assay: FACS, activated human T cells (anti-CD3/anti-CD28), PE anti-human IgG
T2 construct: whole, on cells; the cell is named under assay; also called huGITR; TNFRSF18
T2 sequence (looked up): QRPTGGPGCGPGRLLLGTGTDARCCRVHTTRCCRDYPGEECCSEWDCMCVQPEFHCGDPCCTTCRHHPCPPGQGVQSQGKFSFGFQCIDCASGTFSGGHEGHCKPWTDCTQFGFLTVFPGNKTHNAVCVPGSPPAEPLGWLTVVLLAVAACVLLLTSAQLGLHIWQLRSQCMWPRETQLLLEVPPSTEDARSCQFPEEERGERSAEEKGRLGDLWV
Description: as §1

[3] = target: T2, human GITR, membrane bound (on …); assay: FACS blocking assay on GITR-3A9 cells: antibody titrated first, then GITR-L, bound GITR-L read as GMFI (PE). The table prints no unit, so ug/mL is taken from the axis 'Conc (ug/mL)'.
[4] = target: T2, human GITR, membrane bound (on …); assay: FACS blocking assay on GITR-3A9 cells with GITR-L, plotted as % inhibition. The table prints no unit, so ug/mL is taken from the axis 'Conc (ug/mL)'.
[5] = target: T1, cynomolgus GITR on activated cynomolgus …; assay: FACS, activated cynomolgus T cells (anti-CD3/anti-CD28), PE anti-human IgG
Description: as §1

[6] = target: T2, human GITR, membrane bound (on …); assay: FACS binding to 3A9-hGITR transfectant, Geo-MFI (PE); EC50 table beside the curves; unit from the axis; the lowest curve (small diamonds) reaches only about 40 Geo-MFI at the top concentration
[7] = target: T2, human GITR, membrane bound (on …); assay: FACS binding to 3A9-hGITR transfectant, Geo-MFI (PE); EC50 table beside the curves; unit from the axis
[8] = target: T3, mouse GITR (mouse, UniProt O35714 20-228); assay: stated in the Treg suppression assay with wildtype and huGITR knock-in mouse T cells
T3 construct: whole, on cells; also called muGITR
T3 sequence (looked up): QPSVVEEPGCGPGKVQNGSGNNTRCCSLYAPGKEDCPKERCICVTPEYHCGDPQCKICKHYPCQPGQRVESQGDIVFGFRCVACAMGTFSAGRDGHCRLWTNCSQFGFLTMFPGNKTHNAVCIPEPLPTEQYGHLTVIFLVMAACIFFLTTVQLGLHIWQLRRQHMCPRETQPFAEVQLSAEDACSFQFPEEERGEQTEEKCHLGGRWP

[9] = target: T4, non-glycosylated N-terminal human GITR peptide consisting of SEQ ID NO: 215 (human); assay: capture on 28F3 coated beads, LC-MS
T4 construct: Made by proteolysis of native GITR-mouse Fc and also by organic synthesis; also called N-terminal peptide without O-linked glycosylation
T4 peptide: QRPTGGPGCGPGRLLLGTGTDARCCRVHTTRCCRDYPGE
Description: The experiment was conducted as follows: Human GITR peptide fragments were generated by incubation of human GITR with Endoproteinase Arg-C, Endoproteinase Lys-C, Trypsin, Endoproteinase Glu-C or Endoproteinase Asp-N at a 2% w/w ratio at 37° C. in PBS for five hours without the presence of denaturing reagents. The peptide mixture was then incubated with anti-GITR Ab beads in PBS at room temperature for two hours. Some samples were subjected to in situ secondary cleavage by incubation with a different enzyme in PBS for an hour. Unbound peptides were removed by washing the anti-GITR Ab beads twice with PBS.

B1: 3C3 (antibody, human IgG1, kappa, V domains shown)
VH: QVQLQQWGAGLLKPSETLSLTCAVYGGSFSGYYWTWIRQPPGKGLEWIGKINHSGNTNYNPSLKSRVTISVDTSKNQFSLKLSSVTAADTAVYYCARLGAFDAFDIWGQGTMVTVSS
VL: DIQMTQSPSSLSASVGDRVTITCRASQGISSWLAWYQQKPEKAPKSLIYAASSLQSGVPSRFSGSGSGTDFTLTISSLQPEDFATYYCQQYNSYPYTFGQGTKLEIKR
notes: Hybridoma-derived human antibody; also called GITR.3; 3C3-1
EC50 [1]: 0.142 µM | EC50 [2]: 0.0492 nM | EC50 [3]: 0.0693 µg/mL | EC50 [4]: 0.0693 µg/mL

B2: 19D3 (antibody, human IgG2, kappa, V domains shown)
VH: QVQLVESGGGVVQPGRSLRLSCAASGFTFSSYGFHWVRQAPGKGLEWVAVIWYAGSNKFYADSVKGRFTISRDNSKNTLYLQMNSLRAEDTAVYYCARGGQLDYYYYYVMDVWGQGTTVTVSS
VL: B1 VL
notes: Hybridoma-derived human antibody; also called 19D3-IgG2
EC50 [2]: 0.363 nM | EC50 [3]: 0.755 µg/mL | EC50 [4]: 0.755 µg/mL

B5: 28F3 VH CDR3 mutant M98Y, D106E, M111F (antibody, V domains shown)
VH: QVQLVESGGGVVQPGRSLRLSCAASGFTFSSYGMHWVRQAPGKGLEWVAVIWYEGSNKYYADSVKGRFTISRDNSKNTLYLQMNSLRAEDTAVYYCARGGSYVRGEYYYGFDVWGQGTTVTVSS
VL: AIQLTQSPSSLSASVGDRVTITCRASQGISSALAWYQQKPGKAPKLLIYDASSLESGVPSRFSGSGSGTDFTLTISSLQPEDFATYYCQQFNSYPYTFGQGTKLEIK
notes: also called G4
EC50 [7]: 0.045 µM

B6: 28F3 (antibody, human IgG2, kappa)
heavy: QVQLVESGGGVVQPGRSLRLSCAASGFTFSSYGMHWVRQAPGKGLEWVAVIWYEGSNKYYADSVKGRFTISRDNSKNTLYLQMNSLRAEDTAVYYCARGGSMVRGDYYYGMDVWGQGTTVTVSSASTKGPSVFPLAPCSRSTSESTAALGCLVKDYFPEPVTVSWNSGALTSGVHTFPAVLQSSGLYSLSSVVTVPSSNFGTQTYTCNVDHKPSNTKVDKTVERKCCVECPPCPAPPVAGPSVFLFPPKPKDTLMISRTPEVTCVVVDVSHEDPEVQFNWYVDGVEVHNAKTKPREEQFNSTFRVVSVLTVVHQDWLNGKEYKCKVSNKGLPAPIEKTISKTKGQPREPQVYTLPPSREEMTKNQVSLTCLVKGFYPSDIAVEWESNGQPENNYKTTPPMLDSDGSFFLYSKLTVDKSRWQQGNVFSCSVMHEALHNHYTQKSLSLSPGK
light: not shown
notes: Hybridoma-derived human antibody, IgG2 constant region; also called 13H2; 28F3 (IgG2)
EC50 [5]: 0.00104 µM | EC50 [2]: 0.192 nM | binding result [8]: no binding | EC50 [3]: 0.278 µg/mL | binding result [9]: binds | EC50 [4]: 0.278 µg/mL

The remaining lines, values ahead:

EC50 [5]: 0.000913 µM | EC50 [2]: 0.146 nM
B3: 18E10 (antibody, human IgG2, kappa, V domains shown)
VH: B2 VH with F34M, F59Y, Q101R, L102I, D103A, Y104V, Y105A, Y106F, V109S
VL: B1 VL
notes: Hybridoma-derived human antibody; also called 18E10-IgG2

EC50 [6]: ~38600 µM
B4: 28F3 VH CDR3 mutant M98S, D106E, M111F (antibody, V domains shown)
VH: B5 VH with Y102S
VL: B5 VL
notes: also called E4

— patent US20170145104A1 (Bristol-Myers Squibb, published 2017)
